According to the DeepSol protein solubility set:

Test: soluble on expression in E. coli; label from the status in PepcDB or PDB records

Row | Sequence | soluble on expression in E. coli
1 | MRLSILLLVAAHVANGLFGFGEKKTTQAPKISLGSEISIPHTDEDQDTGEIVIPFNDPSTTTTRRRTATTTGIPVISVGGIGLDRTRSTVDVRSFTTTINPRFTAATKRLPSSDRHSSSGCPNRIDAYTFGPDSDYAFYEQQVFKISNNRISDRTTLVEEFKDGPNQVNGALYDPEREILWLVDGRSVYGYKKDGSDNWKLQSVFPKELPSSIGFTPEAAVRWHNKHQLLLSNGGKFALYDEYWNKSLMTGRTESYFENLPDRVRGISTWNSQGHAHIYTQSLVFEYDSEMKKVTGDGVPLGDFWRC | not soluble
2 | ITLNSEPKCINNIKSGQYERYDTNNTELNRVLGGGLVKGSITLISGAPGIGKSTLLLQICQDIALKYGKVLYVSGEESEHQIKMRGDRLGVTSANIYILAETNMESIERHVENIKPAFVIIDSIQTLYKDQITSAPGSVSQVRECANDIMRIAKTDNIPFFIVAHVTKQGELAGPRVLEHIVDTVLTFEGQRTEEFRILRTVKNRFGTTSEIGVFEMKEEGL | not soluble
3 | MASGKATSLYSHAEIFLPSKQESGIKKKSGEETQQTKGATIESSRINQNRAERTQRFQTQCSKRKPYEIRQGIPERSSSKQDPGNKTASIEHRGRENPSETHES | not soluble
4 | QCTGGADCTSCTGACTGCGNCPNAVTCTNSQHCVKANTCTGSTDCNTAQTCTNSKDCFEANTCTDSTNCYKATACTNSSGCPGH | soluble
5 | MAGDPNSMFSPQASAAYDDLHEGYATYTGSGYSGGAFLLDPIPSDMEITAINPADLNYGGVKAALAGSYLEVEGPKGKTTVYVTDLYPEGARGALDLSPNAFRKIGNMKDGKINIKWRVVKAPITGNFTYRIKEGSSRWWAAIQVRNHKYPVMKMEYEKDGKWINMEKMDYNHFVSTNLGTGSLKVRMTDIRGKVVKDTIPKLPESGTSKAYTVPGHVQFPELEHHHHHH | soluble
6 | MGSDKIHHHHHHMNLWTSTPPMLRQISVRAAMDILLHQGPTSRADLAKKTGLSKQTMSEVIRTLETAGWVRVKGIVSGKVGRSAVTYEVAPDAGFVIGMDIGATTIRVAIADIAGTIVHEVEKSAGEHGGEALLAHVSGVVEASLKKARVSRSKVLLAAVAMPGVIDPETGRLSLAPNLSEIGSLDVIKALQGIFRCDVIIENDVNAAVIGESWKGSGIGLDSVAFVSLGTGIGLGVLFNGKLMRGAKGAAGEIGYLPFGADPYNSESLERGALECAIGARGILERYGNPGDGGMTVRDILEAAEKGDAKALATVQETARLAALLVVSVHAMLDPGKIILGGNVGRNPLMVRMVKEALATSTRSSISLEASTLASRATLVGAVAIALNQLHNALFSPQDLPSEMRLPA | not soluble
7 | GHMSAHVQQDKYETNVSYKKLNQLAPYFKGFDGSFVLYNEREQAYSIYNEPESKQRYSPNSTYKIYLALMAFDQNLLSLNHTEQQWDKHQYPFKEWNQDQNLNSSMKYSVNWYYENLNKHLRQDEVKSYLDLIEYGNEEISGNENYWNESSLKISAIEQVNLLKNMKQHNMHFDNKAIEKVENSMTLKQKDTYKYVGKTGTGIVNHKEANGWFVGYVETKDNTYYFATHLKGEDNANGEKAQQISERILKEMELI | soluble
8 | SNAMKFSEFRYERPDIAQLQASFQEALDSFRRAGSAALQHEAMKRINELRRRYSTMANLCHIRHTIDTNDEFYKKEQDFFDETEPVVKGLVNDYYRALVSSPFRAELEQVWGKQLFALAETQLKTYAPVIVEDLQKENKLASEYTKLIASAKIMFEGEERTLAQLQPFVESPDRAMRQRASEARFSFFKDYEKELDELYDELVHVRTAIARKLGFQNFVELGYARLGRTDYNADMVAGYRRQVKTHIVPLAAKLRERQRQRIQVEKLYYYDEPFMFPTGNPTPKGDADWIVQNGRQMYEELSPETGEFFRYMVEHELMDLVAKKGKAGGGYCTYIDDYKAPFIFSNFTGTSGDIDVLTHEAGHAFQVYESRHYDIPEYNWPTLEACEIHSMSMEFFTWPWMELFFGEDADKYRFAHLSDALLFLPYGVAVDEFQHAVYENPDMTPAERKSVWRNIEKAYLPTRDYADHDYLERGGFWQRQGHIYTDPFYYIDYTLAQVCAFQFWKRAQEDRASAWRDYVALCRLGGSRPFTELVKSANLQSPFADGAVASVVGHIERWLDSVDDKAL | soluble
9 | LTEKQKRFADEYIKCGNATEAARLAGYSSKTANRIATENLSKPVIKGYIDKVLSELEEKRVMGYTEAMQLFTEIARGEMEEEVIVSNGDGFSVVTKSADINQRVSALKEIVKRHVAGGRDKLQEELIQAQIDKLRADT | not soluble
10 | MSLSRTIEDRAAEFAIQPSYHALGGEFVRAPVETLREMLGAFGISLDGPPPDRAPPEMRAPDGYRCFLPEGEMRRWGIAAQLYQLRSERNWGIGDFADLCDLARIGGAAGADFIGLNPLHALFLANPAHTSPFSPSNRRFLNPLYIAVDRVPGYRPEFAPEGLGQLRAPDLVDYPAVAAAKLGALRRLWREGPDDAMGFMRFCAEGGELLRRHALFEAISGQMVADGYGAGWLGWPVEFHDAEGQAVIDFADARGDEVGFHLWLQWIADRQLEEARDACRAAGMKIGLYLDFAVGEVPDGSSTWSDPSLAVPGLRIGASPDWFNAQGQDWGLAPLSPVKLADLRAAPFGALMQDATRRAGALRIDHAMGVWQLFLIPDGMGAPQGTYVRYPIEDMLRALAEASCRNRTIVIGEDLGNVPDGFRELMARMNILSYRILLFERHDHGYIAPEHYPREALVCLSTHDLPTFRGWWRGDDVAIRRDFRLISDEAARQQGDFRWTERRQLLEDLARAGLMAWDEIDRIGPDDPPEALVVAVHRHLARAPSRLFAVRIEDMAGEVAPVNVPSTVDEHPNWRRRLGVPLEALGETALFRGIAGALEAEREGHHHHHH | soluble
11 | MGSDKIHHHHHHMIELKNVSMIFNPGTVNENQAISNISLKVREGDFITVIGSNGAGKSTLFNLIAGTITPSSGSIFLNDRNITREPEYKRARYIGRIFQNPLLGTASTMSLEDNMMITYKKGFKWLKRSLNHKMREYFRTELVQLKMGLEDRMKENLALFSGGQRQALTLLMMVLSRPDLILLDEHTAALDPKNAQIVLELTDKFIREYNLTAMMITHNMSHAIEYGNRLLMMDKGEIIFEAEGEEKRALTVEKLIDKFHQIRHTSFENDRTLLSDD | not soluble
12 | MKEVQETAEKIRTMEIRGAGRIAKAAAEVIRDYAAGLEAASIEEFAAGITEVSNYLISTRPTAVSLPNAVKLSSRYSSDNVENARKEVINNANLFIERADKALGRIGKIGAGRVQDGDVIMTHCNSHAALSIITTAFEDGKNISVIATESRPRRQGLLTVRRLNGFGIPTTLIVDSAVRYYMKDVDKVIVGADAIAANGALVNKIGTSQLALAAHEARKSFMVAAETFKFSPSTILGIPIEIEERSTDEVVDPSVLAELPHVQVKNPAFDFTPSEYIDMIVTDIGIIPPAMAYIVIKEHLGWEFEEIAAALEHHHHHH | not soluble
13 | MRVLVLGGGVLGRAIAESLFGEFEVIVVEKDEVRVQTLAEKGLQVVQGDFSYTATLLKAHIEKADLIVITISDPEVIAKTLHVIQNNNKDAAVLLILPEDTSLEEIASIAKEKYDTDVKVDYVINPRSAIVRAVVDTIEKIGEKKNSMKLIEKLNEIKENTDTLLIVMHDNPDPDCMASASALSLIAQTVGLKTVIVYGGDITHHQNRAMVNILGMDFRKVSRGSYEIKRHSAIAIVDAQPNGNISILDDEDIAKVQIIIDHHQILQNLREKLPDNCFVDIRPEANSTSSILVEYLKSLEIPIDENLATALFYGMYIDTKKFSKLSKIDIKAIEFLSGHVDYDLLDKIEFPDISTETAEILARAILNRRIYKNVIISNVGFIANRDAIAEAADFLLRLEGITTVLVFGIVDDRIEISARTRDVRVNIGAIMKEAFGSLGSGGGHPQAGGARIPLGIFKLAKDKASLLRLVEEAITERFLEALGMREGT | not soluble
14 | MAHHHHHHMWEETYVRACANLGVQPRNEVLAAVGGTAQLCGNTFANFENRLTDEELAALCETCRQISLVAVVRLPYNNITCRGATALAKAMKEGFSTLQYLDLSYNSINEEGANAIAAAATNYEMLSTLLLNGNPIGGGSGPCLKTLLESENTQLVTLDLEQTDQGLKSLVHIARGLVHNTTLTTLNLGRPLMTNPMDVSYVVEHLSLALKENRTLRFLGLSHFNMADCDLALLLSTLRDSAVTTLSLKGNKLSQASGEPLAQLLAHRPDFLSLDVTANRLRDVGALAIAAVIANHPGLRELQIGFNTIGGVGISALAQSLAANASITTLKLWGNDLTDESVRDLYAIRGRFESMEVTDFSFYVVDGCPMVARE | not soluble
15 | MGSDKIHHHHHHMNIAILNHYASIPEVGSAETRHFELAKRFVREGHRVDIYIGDFSHLTGKRWSETFGWSFSKDGVDFIVVETREYTGNSLSRLLSSIDYYRNGRKKIIQKRYDVIIASSPHPFSWSLGWYYVRRKGGKFFIEIRDVWPDDLVKLGSLSYRHPVSKLFDHMCKKYYPKADGFISLVPDLSEHFNRLKVRPENFIYIPNGVDLKVFKDPEPCPVVDEVFSKVPDGKIKVVYAGSIVEHKGIKEFIETLSKVNKNLRDRFVFFFVGPSHADYLVSVKETAKDLQNVFFFDPVPKRCVPYLLQKADVLLFTLSQTVMDHPAVSSYKVVDYMASGKPVLCVDIENLPFKKTKGAVFFREDNLEEALRRIFEEDLSELGRRNREYVERERDWDRLYEKLRSFVLS | not soluble
16 | QVQSVEVMRDSYGVPHVFADSHYGLYYGYGYAVAQDRLFQMDMARRSFVGTTAAVLGPGEQDAYVKYDMQVRQNFTPASIQRQIAALSKDERDIFRGYADGYNAYLEQVRRRPELLPKEYVDFDFQPEPLTDFDVVMIWVGSMANRFSDTNLEVTALAMRQSLEKQHGPERGRALFDELLWINDTTAPTTVPAPAA | soluble
17 | MGQLPPRARAFFAAQRPLRVLMPGCGSAADLPPLLAMGHDVLAVDFSEAAIELAARQWPEAAGRLLLADFFQLQMPAFDCLFERAFLCALPVGMRSQYAERVAALIAPGGALAGVFFVADTERGPPFGMQAEALRELLSPWFELEEDLALDESVAVFRNRERWMVWRRRGLEHHHHHH | not soluble
18 | MGSDKIHHHHHHMSESEYKIADGSGKFLQAVKDGRRMKDAQWSKGRILLSNKRIVLAGSEGKRNLPLSEVQGLSGRHDVNQTVAKVGNYVSIRMTNESVMLVSLGDNTETFESKLYGALLDQTELQVKHPAVEGGVVTDEQFERARIKVDESELSVAMSNGSFVSVELDDVGSAEAASLEVNGDTKPVLKVEHTVNRDTSVQTYFATDSHTASILESLLTKEAEKSQGSVELSETEKRVLMALYSGVSSFEIPDFLGMDVDEVESIFERLIEVDVLEEVRKRREVTMKTRGRNIASEAINEE | not soluble
19 | MKFLTTNFLKCSVKACDTSNDNFPLQYDGSKCQLVQDESIEFNPEFLLNIVDRVDWPAVLTVAAELGNNALPPTKPSFPSSIQELTDDDMAILNDLHTLLLQTSIAEGEMKCRNCGHIYYIKNGIPNLLLPPHLV | not soluble
20 | MINLQDVSKVYKSKHGDVNAVQNVSLSIKKGEIFGIIGYSGAGKSSLIRLLNGLEKPTSGTVEVAGTKINEVNGRGLRKARHEISMIFQHFNLLWSRTVRDNIMFPLEIAGVKKSERIKRANELIKLVGLEGKEKSYPSQLSGGQKQRVGIARALANNPKVLLCDEATSALDPQTTDSILDLLSDINERLGLTIVLITHEMHVIRKICNRVAVMENGKVVEEGEVLDVFKNPKEQMTKRFVQQVTEPEETKETLQHLLDDTASGKMVQLTFVGESAEQPLITEMIRNFNVSVNILQGKISQTKDGAYGSLFIHIDGDEEEVQNVIRFINDKQVKAEVITNV | not soluble
21 | MQVEVGQIVNTHGIKGEVKVKSNSDFTDTRFQPGEVLTVNHQNHEEQLTVLSYRVHKGFHMLKFEGINNINDVEQYKGDYLYQERDHEDIELAENEYYYSDIIGSTVFDNDNQPIGRVINIFETGANDVWVVKGEKEYLIPYIADVVKEIDIENKTIRITPMEGLLDLEHHHHHH | soluble
